# Reference: publication PMC5902045, “Degenerate Pax2 and Senseless binding motifs improve detection of low-affinity sites required for enhancer specificity”
# Where a chain is given by its changes, count along the chain named.
# B1: RhoA-WT (dsDNA)
# DNA 1: TCGTTGCAGTTCATTGATTGACATTTTTATTATGCATATTCGCTGGT
# DNA 2: ACCAGCGAATATGCATAATAAAAATGTCAATCAATGAACTGCAACGA
# B2: RhoA-PSSS (strong Pax2 and Sens sites) (dsDNA)
# DNA 1: B1 DNA 1 with T5C, G6A, A8G, T11G, T14C
# DNA 2: B1 DNA 2 with A34G, A37C, T40C, C42T, A43G
# B3: RhoA-SM (Sens site mutant) (dsDNA)
# DNA 1: B1 DNA 1 with C12G, A13G
# DNA 2: B1 DNA 2 with T35C, G36C
# B4: RhoA-SM/SM (dsDNA)
# DNA 1: TCGTTGCAGTTGGTTGATTGACATTTTTATTATGCATGGTTGATTGA
# DNA 2: TCAATCAACCATGCATAATAAAAATGTCAATCAACCAACTGCAACGA
# B5: RhoA-SM/SWT (dsDNA)
# DNA 1: B4 DNA 1 with G38C, G39A
# DNA 2: B4 DNA 2 with C9T, C10G
# B6: RhoA-PS (strong Pax2 site) (dsDNA)
# DNA 1: B1 DNA 1 with T5C, G6A, A8G
# DNA 2: B1 DNA 2 with T40C, C42T, A43G
# B7: RhoA-SM/SS (dsDNA)
# DNA 1: B4 DNA 1 with T37G, G38C, G39A, T40C
# DNA 2: B4 DNA 2 with A8G, C9T, C10G, A11C
# B8: RhoA-SS (strong Sens site) (dsDNA)
# DNA 1: B1 DNA 1 with T11G, T14C
# DNA 2: B1 DNA 2 with A34G, A37C
# B9: RhoA-PM (Pax2 site mutant) (dsDNA)
# DNA 1: B1 DNA 1 with T4G, T5G, G6T
# DNA 2: B1 DNA 2 with C42A, A43C, A44C
# Target: Senseless (Sens) (UniProt Q9N658 413-520)
# Sequence (Q9N658 413-520): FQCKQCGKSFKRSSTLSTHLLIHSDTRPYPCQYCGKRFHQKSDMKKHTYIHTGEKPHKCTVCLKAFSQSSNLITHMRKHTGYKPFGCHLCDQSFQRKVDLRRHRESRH
# Experiment: EMSA; Native PAGE EMSA, probe 0.36 uM, LI-COR imaging; protein amounts in ng; buffer, salt, pH and temperature not given (cited to refs 43, 64)
# Details: protein: recombinant; tags: His
row,Binder,binding result
1,B1,binds
2,B2,binds
3,B3,no binding
4,B4,no binding
5,B5,binds
6,B6,binds
7,B7,binds
8,B8,binds
9,B9,binds

# Target: Pax2 (UniProt Q8IM96 175-301)
# Sequence (Q8IM96 entry or part of it): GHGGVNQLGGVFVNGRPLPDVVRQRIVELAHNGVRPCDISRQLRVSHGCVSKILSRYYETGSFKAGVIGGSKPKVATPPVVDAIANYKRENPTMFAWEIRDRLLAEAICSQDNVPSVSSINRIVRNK
# Experiment: as above
# Details: protein: recombinant; tags: His
row,Binder,binding result
1,B1,binds
2,B2,binds
3,B6,binds
